# Data as given in the RNAGym collection of RNA variant scans (doi:10.1073/pnas.2313332121).
# B1: TPR t1 (parent)
# chain: GACCAAUCUGCCCUCAGAGCUCGAGAACAUCUUCGGAUGCAGAGGAGGCAGGCUUCGGUGGCGCGAUAGCGCCAACGUCCUCAACCUCCAAUGCAUCCCACCACAUGAUGAUGCCUGAAGAGCCUUGGUUUUUUG
# Variants of: B1
# Experiment: polymerase ribozyme fitness, log enrichment relative to wild type (log ratio); higher = more active; in vitro selection for triplet polymerase activity
# How it was run: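 Fitness compares each genotype's enrichment to that of the wild type on a logarithmic scale, averaging replicates with inverse-variance weights. The logarithm is base 2. Enrichment came from Illumina sequencing of input and output libraries after one triplicate round of in vitro selection, which included frozen incubation at −7 °C, of PCR-built, transcribed mutant libraries of each subunit of a heterodimeric triplet polymerase ribozyme. Only genotypes with ≥10 input reads and ≥1 read per output were kept.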
row,Variant,polymerase ribozyme fitness (log ratio)
1,GACCAAUCUGCCCUCAGAGCUCGAGAACAUCUUCGGGUGCAGAGGAGGCAGGCUUCGGUGGCUCGAUAGCGCCAACGUCCACAACCUCCAAUGCAUCCCACCACAUGAUGAUGCCUGAAGAGCCUUGGUUUUUUG [A37G G63U U81A],-2.09
2,GACCAAUCUGCCCUCAGAGCUCGAGAACAUCUUCGGGUGCAGAGGAGGCAGGCUUCAGUGGCGCGAUAGCGCCAACGUCCUCAACCUCCAAUGCAUCCCACCACAUGAUCAUGCCUGAAGAGCCUUGGUUUUUUG [A37G G57A G110C],-5.28
3,GACCAAUCUGCCCUCAGAGCUCGAGAACAUCUUCGGUUGCAGUGGAGGCAGGCUUCGGUGGCGCGAUAGCGCCAACGUCCUCAACCUCCAAUCCAUCCCACCACAUGAUGAUGCCAGAAGAGCCUUGGUUUUUUG [A37U A43U G93C U116A],-6.51
4,GACCAAUCUGCCCUCAGAGCUCGAGAACAUCUUCGGUUGCAGAGGAGGCCGGCUUCGGUGGCGCGAUAGAGCCAACGUCCUCAACCUCCAAUGCAUCCCACCACAUGAUGAUGCCUGAAGAGCGUUGGUUUUUUG [A37U A50C C70A C124G],-1.17
5,GACCAAUCUGCCCUCAGAGCUCGAGAACAUCUUCGGUUGCAGAGGAGGCAGGCUUCGGUGGCGCGAUAGCGCCAACGUCCUCAACCUCCAAUGCAUCCCACCACAUGAUGAUGCCUGAAGCGCCUGGUUUUUUUG [A37U A121C U126G G128U],0.977
6,GACCAAUCUGCCCUCAGAGCUCGAGAACAUCUUCGGGUGCAGAGGAGGCAGGCUUCGGUAGCGCGAUAGCGCCAACGUCCUCAACCUCCAAUGCAUCCCACCACAUGAUGAUGCCUGAAGAGCCUUAGUUUUUUG [A37G G60A G127A],-2
7,GACCAAUCUGCCCUCAGAGCUCGAGAACAUCUUCGGUUGCAGAGGAGGCCGGCUUCGGUGGCGCGAUAGCGCCAACGUCCUCAACCUCCAAUGCAUCCCACCACAUGAUGAUGCCUGAAGAGCGUUGGUUUUUUG [A37U A50C C124G],1.16
8,GACCAAUCUGCCCUCAGAGCUCGAGAACAUCUUCGGGUGCAGAGGAGGCAGGCUUCGGUGGCGCGAUAGCUCCAACGUCCUCAACCUCCAAUGCAUCCCACCACAUGAUGAUGACUGACGAGCCUUGGUUUUUUG [A37G G71U C114A A119C],-5.35
9,GACCAAUCUGCCCUCAGAGCUCGAGAACAUCUUCGGUUGCAGAGGAGGCGGGCGUCGGUGGCGCGAUAGCGCCAACGUCCUCAACCUCCAAUGCAUCCCACCACAUGAUGAUGCCUGAAGAGCCUUGGUUUUUUG [A37U A50G U54G],-0.818
10,GACCAAUCUGCCCUCAGAGCUCGAGAACAUCUUCGGUUGCAGAGGAGGCAGGCUUCGGUGGCGCGUUAGCGCCAACGUCCUCAACCUCCAAUGCAUCCCACCACAUGAUGAUGCCUGAAGAGCCUUGGUUUUUUG [A37U A66U],-1.5
11,GACCAAUCUGCCCUCAGAGCUCGAGAACAUCUUCGGUUGCAGAGGAGGCAGGCUUCGGUGGCGCGAUAGCGCCAACGUCCUCAACCUCCGAUGCAUACCACCACAUGAUGAUGCCUGAAGAGCCUUGGUUUUUUG [A37U A90G C97A],-5.5
12,GACCAAUCUGCCCUCAGAGCUCGAGAACAUCUUCGGGUGCAGAGGAGGCAGGCUUCGGUGCCGCGAUAGCGCCAACGUCCUCAACCUCCAAUGCAUCCCACCACAUGAUGAUGCCUGAAGAGCCUUGGUUUUUUG [A37G G61C],-1.44
13,GACCAAUCUGCCCUCAGAGCUCGAGAACAUCUUCGGGUGCAGAGGAGGCAGGCUUCGGUGUCGCGAUAGCGCCAACGUCCUCAACCUCCAAUGCAUCCCACCACAUGAUGAUGCCUGAAGAGCCUUGGUUUUUUG [A37G G61U],-1.33
14,GACCAAUCUGCCCUCAGAGCUCGAGAACAUCUUCGGGUGCAGAGGAGGCAGGCUUCGGUGACGCGAUAGCGCCAACGUCCUCAACCUCCAAUGCAUCCCACCACAUGAUGAUGCCUGAAGAGCCUUGGUUUUUUG [A37G G61A],-0.324
15,GACCAAUCUGCCCUCAGAGCUCGAGAACAUCUUCGGGUGCAGAGGAGGCAGGCUUCGGUGGCUCGAUAGCGCCAACGUCCUCAACCUCCAAUGCAUCCCAGCAGAUGAUGAUGUCUGAAGAGCCUUGAUUUUUUG [A37G G63U C101G C104G C114U G128A],-4.99
16,GACCAAUCUGCCCUCAGAGCUCGAGAACAUCUUCGGGUGCAGAGGAGGCAGGCUUCGGUGGCGCGAUAUCGCUAACGUCCUCAACCCCCAAUGCAUCCCACCAAAUGAUGAUGCCUGAAGAGCCUUGGUUGUUUG [A37G G69U C73U U87C C104A U131G],-4.34
17,GACCAAUCUGCCCUCAGAGCUCGAGAACAUCUUCGGGUGCAGAGGAGGCAGACUUCGGUGUCGCGAUAGCGCCAACGUCCUCAACCUCCAAUGCAUCCCACCACAUGAUGAUGCCUGAAGAGCCUUGGUUUUUUG [A37G G52A G61U],-3.07
18,GACCAAUCUGCCCUCAGAGCUCGAGAACAUCUUCGGGUGCAGAGGAGGCAGGCUUCGGUGGCGCGAUAACGCCAACGUCCUCAACCUCCAAUGCAUCCCACCACAUGAUGAUGCCUGAAGAGCCUUGGUUUUUUG [A37G G69A],-2.42
19,GACCAAUCUGCCCUCAGAGCUCGAGAACAUCUUCGGUUGCAGAGGAGGCAGGCUUCGGUGGCGCGAUAGCGCCAUCGUCCUCAACCUCCAAUGCAUCCCACCACAUGAUGAUGCCUGAAGAGCCUUGGUUUUUUG [A37U A75U],-0.0341
20,GACCAAUCUGCCCUCAGAGCUCGAGAACAUCUUCGGUUGCAGAGGAGGCAGGCUUCGGUGGCGCGAUAGCGCCAACGUCCUCAACCUCCAGUGCAUCCCACCACUUGAUGAUGCCUGAAGAGCCUUGGUUUUUUG [A37U A91G A105U],-3.28
21,GACCAAUCUGCCCUCAGAGCUCGAGAACAUCUUCGGGUGCAGAGGAGGCAGGCUUCGGUGGCGCGAUAGCGCCAACAUCCUCAACCUCCAAUGCAUCCCACCACAUGAUGAUGCCUGAAGAGCCUUGGUGUUUUG [A37G G77A U130G],-1.16
